Target: T1, His-Smurf1 (UniProt Q9HCE7-2 1-731)
T1 construct: Smurf1, inserted into pET-28a; also called His-tagged Smurf1; source: Escherichia coli BL21, purified
Experiment: pull-down; bacteria-expressed GST-tagged protein immobilised on glutathione-Sepharose 4B beads, incubated with His-tagged protein for 8 h at 4 °C; washed with GST-binding buffer (100 mM NaCl, 50 mM NaF, 2 mM EDTA, 1% NP-40); immunoblotting
Conditions: both partners purified

T1 sequence (Q9HCE7 other isoform, or with tags, fused parts or gaps): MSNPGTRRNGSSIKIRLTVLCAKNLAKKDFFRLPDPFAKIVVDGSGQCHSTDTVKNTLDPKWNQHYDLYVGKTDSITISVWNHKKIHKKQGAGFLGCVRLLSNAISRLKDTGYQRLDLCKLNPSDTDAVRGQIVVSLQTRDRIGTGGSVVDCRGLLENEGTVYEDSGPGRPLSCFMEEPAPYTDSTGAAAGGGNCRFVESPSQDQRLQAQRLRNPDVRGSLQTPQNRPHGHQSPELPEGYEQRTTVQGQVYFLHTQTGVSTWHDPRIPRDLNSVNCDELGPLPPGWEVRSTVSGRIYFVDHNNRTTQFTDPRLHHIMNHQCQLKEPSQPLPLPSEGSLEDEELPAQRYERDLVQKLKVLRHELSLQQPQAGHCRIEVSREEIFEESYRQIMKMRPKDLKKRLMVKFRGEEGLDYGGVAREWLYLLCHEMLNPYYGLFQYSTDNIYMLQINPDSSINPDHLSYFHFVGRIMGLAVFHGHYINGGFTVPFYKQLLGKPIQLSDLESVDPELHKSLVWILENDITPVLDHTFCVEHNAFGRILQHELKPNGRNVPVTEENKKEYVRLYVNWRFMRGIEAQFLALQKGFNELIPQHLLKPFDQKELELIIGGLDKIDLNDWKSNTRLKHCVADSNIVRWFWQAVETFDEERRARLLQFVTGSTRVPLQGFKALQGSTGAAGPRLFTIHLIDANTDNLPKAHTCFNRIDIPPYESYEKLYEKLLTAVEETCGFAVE

- binding result: binds
B1: GST-SRSF5 (natural protein, UniProt Q13243 1-272, looked up)
chain: MSGCRVFIGRLNPAAREKDVERFFKGYGRIRDIDLKRGFGFVEFEDPRDADDAVYELDGKELCSERVTIEHARARSRGGRGRGRYSDRFSSRRPRNDRRNAPPVRTENRLIVENLSSRVSWQDLKDFMRQAGEVTFADAHRPKLNEGVVEFASYGDLKNAIEKLSGKEINGRKIKLIEGSKRHSRSRSRSRSRTRSSSRSRSRSRSRSRKSYSRSRSRSRSRSRSKSRSVSRSPVPEKSQKRGSSSRSKSPASVDRQRSRSRSRSRSVDSGN
notes: splicing factor SRSF5, inserted into pGEX-6P-1; also called GST–SRSF5 fusion protein; source: Escherichia coli BL21, purified; immobilised on glutathione-Sepharose 4B beads

Source: paper PMC6018636, “Mutually exclusive acetylation and ubiquitylation of the splicing factor SRSF5 control tumor growth” (Nature Communications, 2018)
